From patent US20040091878, “Zinc finger domain recognition code and uses thereof” (published 2004)

B1: AL1 target probe (dsDNA)
DNA 1: TATATATAAGTAAGGTAGTATATATA
DNA 2: TATATATACTACCTTACTTATATATA
B2: Zif268 target probe (dsDNA)
DNA 1: TATATATAGCGTGGGCGTTATATATA
DNA 2: TATATATAACGCCCACGCTATATATA

Key:
[1] = target: AL1 ZFP (Clone 1, 3-finger, Sp1C domain 2 framework) (artificial); assay: EMSA; half-maximal binding also 18 nM; 10 mM Tris pH 7.5, 100 mM NaCl, 1 mM MgCl2, 0.1 mM ZnCl2, poly(dA-dT)2, on ice; conditions: tags: expressed from pET-21a in E. coli BL21(DE3)pLysS, Bio-Rex 70 purified; label: 5'-32P
[2] = target: Zif268 (UniProt P08046 P08046:333-421); assay: EMSA; half-maximal binding; positive control; 0.1 mM ZnCl2

AL1 ZFP (Clone 1, 3-finger, Sp1C domain 2 framework) (artificial), sequence (chain, as listed by the source): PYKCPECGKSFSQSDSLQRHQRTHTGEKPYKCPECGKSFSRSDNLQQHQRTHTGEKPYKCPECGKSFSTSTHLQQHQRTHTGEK

Binder	Kd [1]	apparent K (half saturation) [2]
B1	18 nM	
B2		4 nM
